Results as given in PMC11220700, “Activation and Purification of ß‐Glucocerebrosidase by Exploiting its Transporter LIMP‐2 – Implications for Novel Treatment Strategies in Gaucher's and Parkinson's Disease” (Advanced Science, 2024).

System: wt GCase in HEK 293F supernatant
Test: GCase activity in supernatant of HEK 293F cells co‐expressing soluble LIMP‐2
Assay type: cell-based, human
Settings: co‐expression with wt GCase, 0‐72 h after transfection, n = 3
Experimental: HEK 293F cells (ThermoFisher Scientific Inc., Waltham, MA, United States, #R79007) were cultivated in FreeStyle 293 expression medium (ThermoFisher Scientific Inc., Waltham, MA, United States, #12 338 018) in vented flat‐bottom Erlenmeyer flasks (ThermoFisher Scientific Inc., Waltham, MA, United States, #4115‐0125, #4115‐0250, #4115‐0500, #4115‐1000, #4115‐2000) on a MaxQ CO2 Plus orbital shaker (ThermoFisher Scientific Inc., Waltham, MA, United States, #88 881 102) at 125 rpm, 37 °C and 8% CO2. Regularly, the cell count was determined using a Cellometer Auto T4 Plus cell counter (Nexcelom Biocience LLC, Lawrence, Massachusetts, United States). […] For seeding, cells were counted and the desired cell number was transferred to 50 mL tubes. […]
Activity of GCase‐containing samples (recombinant protein, cell lysate, LE fractions, conditioned culture medium) was measured using the synthetic substrate 4‐methylumbelliferyl‐β‐D‐glucopyranoside (4MU, Merck Millipore, Billerica, MA, United States, #M3633). […] GCase activity was quantified via fluorescence of released 4‐methylumbelliferone (endpoint measurement) using an Infinite 200 Pro (TECAN, Männedorf, Switzerland), SpectraMax Gemini (Molecular Devices, San José, CA, United States) or ClarioStar (BMG LABTECH, Ortenberg, Germany) multiplate reader (λ ex: 365 nm; λ em: 445 nm). […]

B1: sLIMP‐2: secreted LIMP‐2 ectodomain, amino acids 36–431, N‐terminal IgK leader sequence, C‐terminal TEV‐cleavable 10xHis tag (protein)
chain: SIEKKIVLRNGTEAFDSWEKPPLPVYTQFYFFNVTNPEEILRGETPRVEEVGPYTYRELRNKANIQFGDNGTTISAVSNKAYVFERDQSVGDPKIDLIRTLNIPVLTVIEWSQVHFLREIIEAMLKAYQQKLFVTHTVDELLWGYKDEILSLIHVFRPDISPYFGLFYEKNGTNDGDYVFLTGEDSYLNFTKIVEWNGKTSLDWWITDKCNMINGTDGDSFHPLITKDEVLYVFPSDFCRSVYITFSDYESVQGLPAFRYKVPAEILANTSDNAGFCIPEGNCLGSGVLNVSICKNGAPIIMSFPHFYQADERFVSAIEGMHPNQEDHETFVDINPLTGIILKAAKRFQINIYVKKLDDFVETGDIRTMVFPVMYLNESVHIDKETASRLKSMINT
modifications: left off: Igκ leader sequence, N-terminal, state not stated | 10xHis (TEV-cleavable), C-terminal, kept
GCase activity in supernatant over time: GCase activity is higher and stable over the course of the measurements
